Experimental data: patent US10064926B2, “Peptides and combination of peptides for use in immunotherapy against hepatocellular carcinoma (HCC) and other cancers” (Immatics biotechnologies GmbH, priority 2014, dated 2018)

Each substance was assayed against HLA-A*02 (Homo sapiens, UniProt P04439, D140Y/D185E/D98H/E176V/E277Q/G131W/G231S/I119V/I121R/I166T/I218V/N151K/N90K/P208A/P217A/Q86G/Q94H/R138H/R169H) (assay: UV-ligand exchange / peptide binding to MHC class I (beta2m ELISA)). Conditions: Table 10A; peptide exchange yield, UV-ligand exchange, β2m ELISA.
Description: Candidate peptides for T cell based therapies according to the present invention were further tested for their MHC binding capacity (affinity). The individual peptide-MHC complexes were produced by UV-ligand exchange, where a UV-sensitive peptide is cleaved upon UV-irradiation, and exchanged with the peptide of interest as analyzed. Only peptide candidates that can effectively bind and stabilize the peptide-receptive MHC molecules prevent dissociation of the MHC complexes. To determine the yield of the exchange reaction, an ELISA was performed based on the detection of the light chain (β2m) of stabilized MHC complexes. The assay was performed as generally described in Rodenko et al. (Rodenko B, Toebes M, Hadrup S R, van Esch W J, Molenaar A M, Schumacher T N, Ovaa H. Generation of peptide-MHC class I complexes through UV-mediated ligand exchange. Nat Protoc. 2006; 1(3):1120-32).
96 well MAXISorp plates (NUNC) were coated over night with 2 ug/ml streptavidin in PBS at room temperature, washed 4× and blocked for 1 h at 37° C. in 2% BSA containing blocking buffer. Refolded HLA-A*0201/MLA-001 monomers served as standards, covering the range of 15-500 ng/ml. Peptide-MHC monomers of the UV-exchange reaction were diluted 100 fold in blocking buffer. Samples were incubated for 1 h at 37° C., washed four times, incubated with 2 ug/ml HRP conjugated anti-β2m for 1 h at 37° C., washed again and detected with TMB solution that is stopped with […]. Absorption was measured at 450 nm. Candidate peptides that show a high exchange yield (preferably higher than 50%, most preferred higher than 75%) are generally preferred for a generation and production of antibodies or fragments thereof, and/or T cell receptors or fragments thereof, as they show sufficient avidity to the MHC molecules and prevent dissociation of the MHC complexes.

| Peptide exchange (MHC class I binding score) | Substance |
| --- | --- |
| +++ (50%-75% = +++) | 220 (SLLEKELESV; listed as Homo sapiens) [compound 220] |
| +++ (50%-75% = +++) | 221 (ALCEENMRGV; listed as Homo sapiens) [compound 221] |
| ++++ (>=75% = ++++) | 223 (FLFNTENKLLL; listed as Homo sapiens) [compound 223] |

Same assay, conditions: Table 10B; peptide exchange yield; HLA-A*02 peptides

| Substance | Peptide exchange (MHC class I binding score) |
| --- | --- |
| 134 (ALLETNPYLL; listed as Homo sapiens) [compound 134] | “++++” (≥75% = ++++) |
| 135 (ALLGKIEKV; listed as Homo sapiens) [compound 135] | “+++” (≥50 = +++) |
| 136 (ALLNQHYQV; listed as Homo sapiens) [compound 136] | “+++” (≥50 = +++) |
| 137 (ALPTVLVGV; listed as Homo sapiens) [compound 137] | “++++” (≥75% = ++++) |
| 138 (ALSQVTLLL; listed as Homo sapiens) [compound 138] | “++++” (≥75% = ++++) |
| 139 (ALSSKPAEV; listed as Homo sapiens) [compound 139] | “+++” (≥50 = +++) |
| 140 (ALTSISAGV; listed as Homo sapiens) [compound 140] | “++++” (≥75% = ++++) |
| 141 (AMGEKSFSV; listed as Homo sapiens) [compound 141] | “++++” (≥75% = ++++) |
| 142 (AVIGGLIYV; listed as Homo sapiens) [compound 142] | “++++” (≥75% = ++++) |
| 145 (FLIAEYFEHV; listed as Homo sapiens) [compound 145] | “++” (≥20% = ++) |
| 146 (FLWTEQAHTV; listed as Homo sapiens) [compound 146] | “++” (≥20% = ++) |
| 147 (GLAPGGLAVV; listed as Homo sapiens) [compound 147] | “+++” (≥50 = +++) |
| 148 (GLFAPLVFL; listed as Homo sapiens) [compound 148] | “++++” (≥75% = ++++) |
| 149 (GLLSGLDIMEV; listed as Homo sapiens) [compound 149] | “++++” (≥75% = ++++) |
| 150 (GLSNLGIKSI; listed as Homo sapiens) [compound 150] | “++++” (≥75% = ++++) |
| 151 (HLAKVTAEV; listed as Homo sapiens) [compound 151] | “+++” (≥50 = +++) |
| 152 (KLDNNLDSV; listed as Homo sapiens) [compound 152] | “+++” (≥50 = +++) |
| 154 (KLTDHLKYV; listed as Homo sapiens) [compound 154] | “+++” (≥50 = +++) |
| 156 (LLFPHPVNQV; listed as Homo sapiens) [compound 156] | “++++” (≥75% = ++++) |
| 157 (QLLPNLRAV; listed as Homo sapiens) [compound 157] | “+++” (≥50 = +++) |
| 158 (RIISGLVKV; listed as Homo sapiens) [compound 158] | “++” (≥20% = ++) |
| 159 (RLFPDGIVTV; listed as Homo sapiens) [compound 159] | “+++” (≥50 = +++) |
| 160 (RLLAKIICL; listed as Homo sapiens) [compound 160] | “++” (≥20% = ++) |
| 161 (RLLDEQFAV; listed as Homo sapiens) [compound 161] | “+++” (≥50 = +++) |
| 162 (RLMSALTQV; listed as Homo sapiens) [compound 162] | “++” (≥20% = ++) |
| 163 (RLTESVLYL; listed as Homo sapiens) [compound 163] | “+++” (≥50 = +++) |
| 164 (RMLIKLLEV; listed as Homo sapiens) [compound 164] | “+++” (≥50 = +++) |
| 165 (RVIEHVEQV; listed as Homo sapiens) [compound 165] | “++++” (≥75% = ++++) |
| 166 (SILDIVTKV; listed as Homo sapiens) [compound 166] | “+++” (≥50 = +++) |
| 167 (SLAESSFDV; listed as Homo sapiens) [compound 167] | “+++” (≥50 = +++) |

The remaining lines, values ahead:

| Peptide exchange (MHC class I binding score) | Substance |
| --- | --- |
| “+++” (≥50 = +++) | 168 (SLAVLVPIV; listed as Homo sapiens) [compound 168] |
| “+++” (≥50 = +++) | 169 (SLFEWFHPL; listed as Homo sapiens) [compound 169] |
| “+++” (≥50 = +++) | 170 (SLHNGVIQL; listed as Homo sapiens) [compound 170] |
| “+++” (≥50 = +++) | 171 (SLIPAVLTV; listed as Homo sapiens) [compound 171] |
| “+++” (≥50 = +++) | 172 (SLLNFLQHL; listed as Homo sapiens) [compound 172] |
| “+++” (≥50 = +++) | 173 (SLTSEIHFL; listed as Homo sapiens) [compound 173] |
| “+++” (≥50 = +++) | 174 (TLAELGAVQV; listed as Homo sapiens) [compound 174] |
| “+++” (≥50 = +++) | 175 (TLFEHLPHI; listed as Homo sapiens) [compound 175] |
| “++++” (≥75% = ++++) | 176 (TLGQIWDV; listed as Homo sapiens) [compound 176] |
| “+++” (≥50 = +++) | 177 (VLDEPYEKV; listed as Homo sapiens) [compound 177] |
| “+++” (≥50 = +++) | 178 (YIFTTPKSV; listed as Homo sapiens) [compound 178] |
| “++++” (≥75% = ++++) | 179 (YIHNILYEV; listed as Homo sapiens) [compound 179] |
| “+++” (≥50 = +++) | 180 (YLGPHIASVTL; listed as Homo sapiens) [compound 180] |
| “+++” (≥50 = +++) | 181 (YLLEKFVAV; listed as Homo sapiens) [compound 181] |
| “+++” (≥50 = +++) | 182 (YLLHFPMAL; listed as Homo sapiens) [compound 182] |
| “++” (≥20% = ++) | 183 (YLYNNEEQVGL; listed as Homo sapiens) [compound 183] |
| “+++” (≥50 = +++) | 184 (VVLDGGQIVTV; listed as Homo sapiens) [compound 184] |

| Peptide exchange (MHC class I binding score) | Substance |
| --- | --- |
| “+++” (≥50 = +++) | 185 (ALFPALRPGGFQA; listed as Homo sapiens) [compound 185] |
| “+++” (≥50 = +++) | 186 (VLLAQIIQV; listed as Homo sapiens) [compound 186] |
| “+++” (≥50 = +++) | 220 (SLLEKELESV; listed as Homo sapiens) [compound 220] |
| “+++” (≥50 = +++) | 221 (ALCEENMRGV; listed as Homo sapiens) [compound 221] |
| “++” (≥20% = ++) | 222 (LTDITKGV; listed as Homo sapiens) [compound 222] |
| “++++” (≥75% = ++++) | 223 (FLFNTENKLLL; listed as Homo sapiens) [compound 223] |
| “+++” (≥50 = +++) | 229 (KMFESFIESV; listed as Homo sapiens) [compound 229] |
| “++++” (≥75% = ++++) | 231 (RLFNDPVAMV; listed as Homo sapiens) [compound 231] |
| “++++” (≥75% = ++++) | 233 (ALLGKLDAI; listed as Homo sapiens) [compound 233] |
| “++++” (≥75% = ++++) | 234 (YLEPYLKEV; listed as Homo sapiens) [compound 234] |
| “++++” (≥75% = ++++) | 235 (KLFEEIREI; listed as Homo sapiens) [compound 235] |
| “+++” (≥50 = +++) | 236 (ALADKELLPSV; listed as Homo sapiens) [compound 236] |
| “+++” (≥50 = +++) | 237 (ALRGEIETV; listed as Homo sapiens) [compound 237] |
| “++” (≥20% = ++) | 238 (AMPPPPPQGV; listed as Homo sapiens) [compound 238] |
| “+++” (≥50 = +++) | 239 (FLLGFIPAKA; listed as Homo sapiens) [compound 239] |
| “+++” (≥50 = +++) | 240 (FLWERPTLLV; listed as Homo sapiens) [compound 240] |
